T1: full-length steroid 17-alpha-hydroxylase/17,20-lyase (CYP17A1full) (UniProt P05093 1-508)
T1 construct: steroid 17-alpha-hydroxylase/17,20 lyase (CYP17A1), full-length recombinant form; also called full-length CYP17A1
T1 sequence (looked up): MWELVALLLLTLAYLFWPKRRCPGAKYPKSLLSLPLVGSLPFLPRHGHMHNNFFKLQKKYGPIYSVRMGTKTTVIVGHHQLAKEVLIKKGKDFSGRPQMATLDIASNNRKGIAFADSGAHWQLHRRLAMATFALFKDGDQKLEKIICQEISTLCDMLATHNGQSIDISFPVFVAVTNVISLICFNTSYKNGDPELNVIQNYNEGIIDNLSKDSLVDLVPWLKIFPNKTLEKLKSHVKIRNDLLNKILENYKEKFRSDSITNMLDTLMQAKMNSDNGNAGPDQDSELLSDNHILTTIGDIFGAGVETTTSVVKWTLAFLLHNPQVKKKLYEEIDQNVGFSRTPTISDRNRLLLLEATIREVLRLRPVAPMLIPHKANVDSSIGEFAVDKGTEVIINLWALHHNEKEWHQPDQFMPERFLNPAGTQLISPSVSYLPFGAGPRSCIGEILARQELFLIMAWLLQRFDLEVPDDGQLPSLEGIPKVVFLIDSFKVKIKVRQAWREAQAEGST

B1: microsomal cytochrome b5 (CYB5A) (natural protein, UniProt P00167 1-134, looked up)
chain: MAEQSDEAVKYYTLEEIQKHNHSKSTWLILHHKVYDLTKFLEEHPGGEEVLREQAGGDATENFEDVGHSTDAREMSKTFIIGELHPDDRPKLNKPPETLITTIDSSSSWWTNWVIPAISAVAVALMYRLYMAED
notes: microsomal cytochrome b5 (CYB5A), recombinant
B2: sulfotransferase SULT1E1 (enzyme, human, UniProt P49888 1-294, looked up)
chain: MNSELDYYEKFEEVHGILMYKDFVKYWDNVEAFQARPDDLVIATYPKSGTTWVSEIVYMIYKEGDVEKCKEDVIFNRIPFLECRKENLMNGVKQLDEMNSPRIVKTHLPPELLPASFWEKDCKIIYLCRNAKDVAVSFYYFFLMVAGHPNPGSFPEFVEKFMQGQVPYGSWYKHVKSWWEKGKSPRVLFLFYEDLKEDIRKEVIKLIHFLERKPSEELVDRIIHHTSFQEMKNNPSTNYTTLPDEIMNQKLSPFMRKGITGDWKNHFTVALNEKFDKHYEQQMKESTLKFRTEI
notes: cytosolic sulfotransferase SULT1E1, human, recombinant; The oligomeric state in the assay is not known to the authors; source: E. coli DH5α, purified (Ni-NTA agarose, hydroxyapatite)
B3: sulfotransferase SULT2A1 (enzyme, human, UniProt Q06520 1-285, looked up)
chain: MSDDFLWFEGIAFPTMGFRSETLRKVRDEFVIRDEDVIILTYPKSGTNWLAEILCLMHSKGDAKWIQSVPIWERSPWVESEIGYTALSETESPRLFSSHLPIQLFPKSFFSSKAKVIYLMRNPRDVLVSGYFFWKNMKFIKKPKSWEEYFEWFCQGTVLYGSWFDHIHGWMPMREEKNFLLLSYEELKQDTGRTIEKICQFLGKTLEPEELNLILKNSSFQSMKENKMSNYSLLSVDYVVDKAQLLRKGVSGDWKNHFTVAQAEDFDKLFQEKMADLPRELFPWE
notes: cytosolic sulfotransferase SULT2A1, human, recombinant; source: E. coli Rosetta, purified (Ni-NTA agarose, hydroxyapatite)

Columns and labels:
Settings in all cases: both partners purified
[1] = target: B2; assay: SPR; SULT1E1 or SULT2A1 covalently immobilised on CM5 chip via amino groups; CYP17A1full or CYB5A injected at 50 to 5000 nM in HBS-EP+, 25 °C; with 1 mM PAPS; 1:1 Langmuir model
[2] = target: B2; assay: SPR; SULT1E1 or SULT2A1 covalently immobilised on CM5 chip via amino groups; CYP17A1full, CYP17A1tr or CYB5A injected at 50 to 5000 nM in HBS-EP+ (10 mM HEPES, 150 mM NaCl, 3 mM EDTA, 0.05% P20, pH 7.4), 25 °C; no PAPS; 1:1 Langmuir model
[3] = target: T1, full-length steroid …; assay: SPR; SULT1E1 or SULT2A1 covalently immobilised on CM5 chip via amino groups; CYP17A1full or CYB5A injected at 50 to 5000 nM in HBS-EP+, 25 °C; with 1 mM PAPS; 1:1 Langmuir model
[4] = target: T1, full-length steroid …; assay: SPR; SULT1E1 or SULT2A1 covalently immobilised on CM5 chip via amino groups; CYP17A1full, CYP17A1tr or CYB5A injected at 50 to 5000 nM in HBS-EP+ (10 mM HEPES, 150 mM NaCl, 3 mM EDTA, 0.05% P20, pH 7.4), 25 °C; no PAPS; 1:1 Langmuir model
[5] = target: T2, NADPH-dependent cytochrome P450 reductase (CPR) (UniProt P16435 1-677, FAD and FMN cofactors; species (human assumed, rat possible) and construct limits are only in Figure S5 or cited work); assay: SPR; CPR covalently immobilised on CM5 chip via amino groups; SULT1E1 or SULT2A1 as analyte; HBS-EP+, 25 °C; no PAPS; 1:1 Langmuir model
[6] = target: T2, NADPH-dependent cytochrome P450 …; assay: SPR; CPR covalently immobilised on CM5 chip via amino groups; SULT1E1 or SULT2A1 as analyte; HBS-EP+, 25 °C; with 1 mM PAPS; 1:1 Langmuir model

T2 sequence (P16435 whole entry): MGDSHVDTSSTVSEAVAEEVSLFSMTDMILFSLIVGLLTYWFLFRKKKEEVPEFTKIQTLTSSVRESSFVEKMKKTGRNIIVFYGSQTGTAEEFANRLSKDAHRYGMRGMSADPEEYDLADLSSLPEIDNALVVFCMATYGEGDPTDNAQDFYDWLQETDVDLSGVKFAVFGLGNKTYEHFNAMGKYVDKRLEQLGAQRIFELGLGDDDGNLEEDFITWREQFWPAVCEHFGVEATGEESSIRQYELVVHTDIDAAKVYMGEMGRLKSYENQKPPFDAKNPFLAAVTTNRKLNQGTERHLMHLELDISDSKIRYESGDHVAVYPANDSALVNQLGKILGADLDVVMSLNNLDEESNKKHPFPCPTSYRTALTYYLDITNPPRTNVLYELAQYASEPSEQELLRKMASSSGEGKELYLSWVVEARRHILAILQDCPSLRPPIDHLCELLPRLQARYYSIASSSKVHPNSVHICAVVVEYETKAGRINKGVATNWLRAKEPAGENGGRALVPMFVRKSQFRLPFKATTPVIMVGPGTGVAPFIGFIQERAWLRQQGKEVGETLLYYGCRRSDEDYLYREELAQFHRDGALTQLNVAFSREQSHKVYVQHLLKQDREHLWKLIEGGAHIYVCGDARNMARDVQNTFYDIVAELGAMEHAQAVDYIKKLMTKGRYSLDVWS

| Kd [1] [nM] | koff [1] [s⁻¹] | kon [1] [M⁻¹ s⁻¹] | Kd [2] [nM] | koff [2] [s⁻¹] | kon [2] [M⁻¹ s⁻¹] | Kd [3] [nM] | koff [3] [s⁻¹] | kon [3] [M⁻¹ s⁻¹] | Kd [4] [nM] | koff [4] [s⁻¹] | kon [4] [M⁻¹ s⁻¹] | Kd [5] [nM] | koff [5] [s⁻¹] | kon [5] [M⁻¹ s⁻¹] | Kd [6] [nM] | koff [6] [s⁻¹] | kon [6] [M⁻¹ s⁻¹] | Binder |
| --- | --- | --- | --- | --- | --- | --- | --- | --- | --- | --- | --- | --- | --- | --- | --- | --- | --- | --- |
| 88 ± 8 | 0.00067 | 7650 | 71 ± 8 | 0.00098 | 13800 | – | – | – | – | – | – | – | – | – | – | – | – | B1 |
| – | – | – | – | – | – | 138 ± 15 | 0.00076 | 5520 | 196 ± 21 | 0.00058 | 2960 | – | – | – | – | – | – | B2 |
| – | – | – | – | – | – | 105 ± 12 | 0.00137 | 13100 | 124 ± 11 | 0.00055 | 4450 | 1370 ± 126 | 0.00078 | 570 | 957 ± 89 | 0.00051 | 670 | B3 |
